In patent US20230399371A1, “IL-12 COMPOSITIONS AND METHODS OF USE THEREOF” (published 2023):

Target: IL-12Rβ1/IL-12Rβ2 receptor complex (human, UniProt P42701)
Experiment: cell-based or functional assay

B1: P36693671 (other)
chain 1: QVQLVQSGAEVKKPGASVKVSCKASGYTFTMNIIHWVRQAPGQGLEWMGWIHPGSGAIKYAQKLQGRVTMTTDTSTSTAYMELRSLRSDDTAVYYCARHGGTGRGAMDYWGQGTLVTVSSASTKGPSVFPLAPSSKSTSGGTAALGCLVKDYFPEPVTVSWNSGALTSGVHTFPAVLQSSGLYSLSSVVTVPSSSLGTQTYICNVNHKPSNTKVDKKVEPKSCDKGGGGSSGRSDNRGGGGSIWELKKDVYVVELDWYPDAPGEMVVLTCDTPEEDGITWTLDQSSEVLGSGKTLTIQVKEFGDAGQYTCHKGGEVLSHSLLLLHKKEDGIWSTDILKDQKEPKNKTFLRCEAKNYSGRFTCWWLTTISTDLTFSVKSSRGSSDPQGVTCGAATLSAERVRGDNKEYEYSVECQEDSAAPAAEESLPIEVMVDAVHKLKYENYTSSFFIRDIIKPDPPKNLQLKPLKNSRQVEVSWEYPDTWSTPHSYFSLTFSVQVQGQDQDEKKDRVFTDKTSATVICRKNASISVRAQDRYYSSSWSEWASVPCS
chain 2: EIVLTQSPGTLSLSPGERATLSCRASQSVSTSAYSYMHWYQQKPGQAPRLLIYLASNLESGIPDRFSGSGSGTDFTLTISRLEPEDFAVYYCQQSRELPYTFGQGTKLEIKRTVAAPSVFIFPPSDEQLKSGTASVVCLLNNFYPREAKVQWKVDNALQSGNSQESVTEQDSKDSTYSLSSTLTLSKADYEKHKVYACEVTHQGLSSPVTKSFNRGECGGGGSPLGLAGRNLPVATPDPGMFPCLHHSQNLLRAVSNMLQKARQTLEFYPCTSEEIDHEDITKDKTSTVEACLPLELTKNESSLNSRETSFITNGSCLASRKTSFMMALCLSSIYEDLKMYQVEFKTMNAKLLMDPKRQIFLDQNMLAVIDELMQALNFNSETVPQKSSLEEPDFYKTKIKLCILLHAFRIRAVTIDRVMSYLNAS
  IFN-γ secretion by NK92MI cells (ELISA, 48 hrs): ~70 fold lower
